Experiments:
[1] = Evaluation of adsorptivity to culture plate (OPA fluorescence); format: physicochemical; settings: FIG. 1; for adsorptivity to a plate: 0 to 200 pmol/cm^2, 37° C. 2 hours, washed with PBS twice
Experimental: Each polypeptide obtained by the above-described method was diluted with a predetermined buffer so as to be added to wells at a predetermined final concentration of from 0 to 200 pmol/cm^2, and the resultant was aliquoted in 64 μL to a 96-well plate made of polystyrene and treated with plasma (Tissue Culture-Treated, Falcon). Each polypeptide was adsorbed to the plate by incubation at 37° C. for 2 hours, and was thereafter washed with PBS twice, to obtain a surface coated with each of the polypeptides of from RCP-1 to RCP-16.
To surfaces coated with RCP-1, and from RCP-11 to RCP-16 among the polypeptide-coated surfaces obtained as described above, 64 μL of each of boric acid buffer and 1 N NaOH was applied, and incubated at 80° C. and a humidity of 100% for 24 hours. After air-cooling, 75 μL of boric acid buffer was added to each well, and 50 μL of reaction liquid in which an OPA (o-phthalaldehyde: Wako Pure Chemical Industries, Ltd.)/methanol solution (160 mg/ml) and an NAC (N-acetyl-L-cysteine: Wako Pure Chemical industries, Ltd.)/boric acid buffer solution (2 mg/ml) were mixed at 1:100 (mass ratio) was further added. After incubation at 40° C. for 30 minutes, the fluorescence intensity thereof was measured (excitation of 355 nm/fluorescence of 486 nm) using an ENVISION MULTI-LABEL COUNTER (PerkinElmer Inc.). A calibration curve was separately made from each polypeptide solution, to calculate an amount of adsorption. In FIG. 1, a black rhombus, a black tetragon, a black triangle, a black circle, a white rhombus, a white tetragon, and a white triangle represent RCP-1, RCP-11, RCP-12, RCP-13, RCP-14, RCP-15, and RCP-16, respectively.

human iPS cells [2] = experiment: Cell Adhesiveness Evaluation 2 (synthetic peptide inhibition of cell adhesion to natural vitronectin); format: cell-based; settings: 100 μM synthetic peptide
Experimental: Polypeptides listed in Table 7 were synthesized by Emoc solid phase synthesis. A surface to which natural vitronectin was adsorbed at a concentration of 130 pmol/m^2, and thereafter, a cell suspension to which 100 μM of the above-described synthetic peptide was added was seeded at a rate of 30,000 cells/well. The number of adherent cells after 24 h post seeding was calculated by the same technique as in <Cell Adhesiveness Evaluation 1>.

[3] = Presence or absence of aggregation after dialysis; format: physicochemical; settings: after stepwise dialysis removing urea
Experimental: For from RCP-1 to RCP-10, and RCP-17, each polypeptide solution after the purification was dialyzed using a SLIDE-A-LIZER (3.5K MWCO). A dialysis external liquid was based on a dialysis buffer (PBS, 1.5 M NaCl, 0.5 M L-arginine, 1 mM EDTA, pH 7.4), and urea was removed by stepwise dialysis. The concentration of an end dialysis product was calculated at an absorbance of 280 nm using a NANODROP (Thremo Fisher Scientific Inc.).
In addition, the presence or absence of aggregation was evaluated by G, A, and B below.
G: Formation of an aggregate is not observed.
A: Formation of particles having a particle diameter of around 100 nm is observed.
B: Formation of visible aggregation with a particle diameter of 1 mm or more is observed.

human iPS cells [4] = experiment: Proliferation Evaluation of iPS cells on polypeptide-coated plate; format: cell-based; settings: for The Number (%) of Cells after 3 Days: 5000 cells/well
Experimental: The iPS cells collected in the same manner as in <Cell Adhesiveness Evaluation 1>described above were seeded on a 96-well plate, to which RCP-1, RCP-11, and the natural human vitronectin were adsorbed, at a rate of 250 cells/well, and were cultured in a 5% CO2 incubator at 37° C. for 8 days. The number of adherent cells after each lapse of time was measured by the same method as in <Cell Adhesiveness Evaluation 1> described above, to obtain proliferation curves, The proliferation curves were indicated in FIG. 2. In FIG. 2, a black rhombus represents an example in which RCP-1 was used, while a black tetragon represents an example in which RCP-11 was used.
Similarly, each of samples from […] was prepared so as to have an addition concentration listed in Table 8 with each of from RCP-1 to RCP-10, and RCP-17, and Human Recombinant Laminin-511 as a reference, was seeded on a 96-well plate, to which each polypeptide was adsorbed, at a rate of 5000 cells/well in the same manner as in<Cell Adhesiveness Evaluation 1> described above, and was cultured in a CO2 incubator at 37° C. for 3 days. The number of cells after the 3 days was measured by the same method as in <Cell Adhesiveness Evaluation 1> described above.

human iPS cells [5] = experiment: Cell Adhesiveness Evaluation 3 (RCP-1 addition amount series); format: cell-based; settings: adding not less than 125 pmol/cm^2
Experimental: Cell adhesiveness was evaluated in the same manner as in <Cell Adhesiveness Evaluation 1> except that RCP-1 was adjusted with PBS to have a concentration of from 125 pmol/cm^2 to 1000 pmol/cm^2 to be used. In Table 9, cell adhesion rates were relative values in a case in which a cell adhesion rate to a cultivation container to which natural vitronectin was adsorbed at a concentration of 130 pmol/cm^2 was regarded as 100. n=3.

human iPS cells [6] = experiment: Evaluation of Maintenance of Undifferentiation (colony form, NANOG staining); format: cell-based
Experimental: iPS cells collected in the same manner as in <Cell Adhesiveness Evaluation 1> described above were suspended in TESR2. Induced pluripotent stem cells (iPS cells) were seeded on a 6-well plate (Tissue Culture-Treated, Falcon) to which each of the sample 1, the sample 2, the sample 5, the sample 6, and the sample 7 used in <Cell Adhesiveness Evaluation 1> described above was adsorbed in the same manner as in <Cell Adhesiveness Evaluation 1>, and were cultured in a CO2 incubator at 37° C. The culture medium was replaced by a fresh culture medium every day except the next day after the seeding. Subculture was performed by the same method as mentioned above every six days.
The cells were cultured under these conditions for 1 month, thereafter immobilized with 4% paraformaldehyde, and made to have membrane permeability enhanced with 1% Triton-X/PBS. Blocking treatment was performed with an Image IT Signal Enhancer (Invitrogen), followed by adding an anti-human NANOG antibody (AF1997, R&D Systems, Inc), ALEXA FLUOR 555-CONJUGATE rabbit anti-goat IgG antibody (Invitrogen), and DAPI (Dojindo Laboratories), by performing labeling, and by photographing the cells with a fluorescence microscope.
In each of FIG. 3 and FIG. 4, “A”, “B”, “C” “D”, and “E” show iPS cells cultured on RCP-1, iPS cells cultured on RCP-11, iPS cells cultured on the natural human vitronectin, iPS cells cultured on rinaminin-5, and iPS cells cultured on rLaminin-511, respectively. Scale bar: 100 μm. In FIG. 3, overall colony images are shown in the left column, while magnified images are shown in the right column; and in FIG. 4, DAPI-stained images are shown in the left column while anti-NANOG antibody-stained images are shown in the right column. Scale bars in FIGS. 3 and 4: 200 μm.

RCP-14: comparative recombinant polypeptide, GPLG + human vitronectin positions 1-55 (GPLGDQESCKGRCTEGFNVDKKCQCDELCSYYQSCCTDYTAECKPQVTRGDVFTMPEDE; Synthetic Peptide RCP-14) [reference compound]
adsorption amount relative to that of the polypeptide containing SEQ ID NO:2 [1]: ¼
adsorptivity to a plate [1]: inadequate as an adsorbent to a culture plate

TAECKPQVTRGDVFTMPEDE [Peptide-6]
inhibition of cell adhesion to natural vitronectin (in words) (human iPS cells [2]): significantly inhibited

TAECKPQVTRGEVGTMPEDE (TAECKPQVTRGEVFTMPEDE) [Peptide-8]
inhibition of cell adhesion to natural vitronectin (in words) (human iPS cells [2]): adhesion inhibition did not occur

B1: RCP-10: recombinant polypeptide, Met + human vitronectin positions 1-55, 269-373, 374-399, C274S (protein)
chain: MDQESCKGRCTEGFNVDKKCQCDELCSYYQSCCTDYTAECKPQVTRGDVFTMPEDESQEESEGSSLSAVFEHFAMMQRDSWEDIFELLFWGRTSAGTRQPQFISRDWHGVPGQVDAAMAGRIYISGMAPRPSLAKKQRFRHRNRKGYRSQRGHSRGRNQNSRRPSRATWLSLFSSEESNLGANNYD
modifications: Synthetic Peptide RCP-10
notes: recombinant polypeptide, Met + human vitronectin positions 1-55, 269-373, 374-399, C274S
Aggregation [3]: B (Formation of visible aggregation with a particle diameter of 1 mm or more is observed.)
The Number (%) of Cells after 3 Days (human iPS cells [4]; addition amount 20 μg/cm^2): 101.9%

B2: RCP-13: comparative recombinant polypeptide, GPLG + human vitronectin positions 1-55, 56-129 (protein)
chain: GPLGDQESCKGRCTEGFNVDKKCQCDELCSYYQSCCTDYTAECKPQVTRGDVFTMPEDEYTVYDDGEEKNNATVHEQVGGPSLTSDLQAQSKGNPEQTPVLKPEEEAPAPEVGASKPEGIDSRPETLHPGRPQP
modifications: Synthetic Peptide RCP-13
adsorption amount relative to that of the polypeptide containing SEQ ID NO:2 [1]: ¼
adsorptivity to a plate [1]: inadequate as an adsorbent to a culture plate

B3: RCP-16: comparative recombinant polypeptide, GPLG + human vitronectin positions 269-459 (protein)
chain: GPLGPSQEECEGSSLSAVFEHFAMMQRDSWEDIFELLFWGRTSAGTRQPQFISRDWHGVPGQVDAAMAGRIYISGMAPRPSLAKKQRFRHRNRKGYRSQRGHSRGRNQNSRRPSRATWLSLFSSEESNLGANNYDDYRMDWLVPATCEPIQSVFFFSGDKYYRVNLRTRRVDTVDPPYPRSIAQYWLGCPAPGHL
modifications: Synthetic Peptide RCP-16
adsorptivity to a plate [1]: favorable adsorptivity to a plate, equivalent to that of RCP-11

B4: RCP-1: recombinant polypeptide, Met + human vitronectin (SEQ ID NO:3) positions 1-55, 269-459 (protein)
chain: MDQESCKGRCTEGFNVDKKCQCDELCSYYQSCCTDYTAECKPQVTRGDVFTMPEDEPSQEECEGSSLSAVFEHFAMMQRDSWEDIFELLFWGRTSAGTRQPQFISRDWHGVPGQVDAAMAGRIYISGMAPRPSLAKKQRFRHRNRKGYRSQRGHSRGRNQNSRRPSRATWLSLFSSEESNLGANNYDDYRMDWLVPATCEPIQSVFFFSGDKYYRVNLRTRRVDTVDPPYPRSIAQYWLGCPAPGHL
modifications: Synthetic Peptide RCP-1
adsorptivity to a plate [1]: favorable adsorptivity to a plate, equivalent to that of RCP-11
cell proliferation property (in words) (human iPS cells [4]; FIG. 2 and Table 8): higher cell proliferation property than that of RCP-11
The Number (%) of Cells after 3 Days (human iPS cells [4]; addition amount 80 μg/cm^2): 100.0%
adhesiveness of iPS cells (in words) (human iPS cells [5]): cell adhesion rate equivalent to that of natural vitronectin
form of iPS cell colonies (human iPS cells [6]; FIG. 3, TESR2, subculture every six days): homogeneous colony and a form characteristic for undifferentiated cells having a high nucleus occupying rate
NANOG expression (immunostaining) (human iPS cells [6]; FIG. 4, cultured for 1 month): strongly expressed NANOG in an overall colony
maintenance of undifferentiated state (human iPS cells [6]; cultured for 1 month): undifferentiated state was favorably maintained

B5: RCP-15: comparative recombinant polypeptide, GPLG + human vitronectin positions 56-459 (protein)
chain: GPLGYTVYDDGEEKNNATVHEQVGGPSLTSDLQAQSKGNPEQTPVLKPEEEAPAPEVGASKPEGIDSRPETLHPGRPQPPAEEELCSGKPFDAFTDLKNGSLFAFRGQYCYELDEKAVRPGYPKLIRDVWGIEGPIDAAFTRINCQGKTYLFKGSQYWRFEDGVLDPDYPRNISDGFDGIPDNVDAALALPAHSYSGRERVYFFKGKQYWEYQFQHQPSQEECEGSSLSAVFEHFAMMQRDSWEDIFELLFWGRTSAGTRQPQFISRDWHGVPGQVDAAMAGRIYISGMAPRPSLAKKQRFRHRNRKGYRSQRGHSRGRNQNSRRPSRATWLSLFSSEESNLGANNYDDYRMDWLVPATCEPIQSVFFFSGDKYYRVNLRTRRVDTVDPPYPRSIAQYWLGCPAPGHL
modifications: Synthetic Peptide RCP-15
adsorptivity to a plate [1]: favorable adsorptivity to a plate, equivalent to that of RCP-11

B6: RCP-9: recombinant polypeptide, Met + human vitronectin positions 1-55, 269-373, 374-389, C274S (protein)
chain: MDQESCKGRCTEGFNVDKKCQCDELCSYYQSCCTDYTAECKPQVTRGDVFTMPEDESQEESEGSSLSAVFEHFAMMQRDSWEDIFELLFWGRTSAGTRQPQFISRDWHGVPGQVDAAMAGRIYISGMAPRPSLAKKQRFRHRNRKGYRSQRGHSRGRNQNSRRPSRATWLSLFSSE
modifications: Synthetic Peptide RCP-9
notes: recombinant polypeptide, Met + human vitronectin positions 1-55, 269-373, 374-389, C274S
Aggregation [3]: B (Formation of visible aggregation with a particle diameter of 1 mm or more is observed.)
The Number (%) of Cells after 3 Days (human iPS cells [4]; addition amount 20 μg/cm^2): 105.8%

From patent publication US10407662B2, “Method of culturing pluripotent stem cell, and polypeptide to be used therefor” (FUJIFILM Corporation, priority 2012, dated 2019)
